According to patent publication EP4242225A1 (Consejo Superior De Investigaciones Científicas, dated 2023):

Experiments:
Assay in all cases: ELISA, biotin-labeled bispecific hcAb on plate-bound RBD-Fc
[1] = molecular target: T1, RBD-Fc, beta variant (B.1.351) (SARS-CoV-2; human, UniProt P0DTC2 332-534)
T1 construct: range 332-534; also called beta RBD

[2] = molecular target: T2, RBD-Fc, gamma variant (B.1.1.28.1 or P.1) (SARS-CoV-2; human, UniProt P0DTC2 332-534)
T2 construct: range 332-534; also called gamma RBD

[3] = molecular target: T3, RBD-Fc, delta variant (B.1.617.2) (SARS-CoV-2; human, UniProt P0DTC2 332-534)
T3 construct: range 332-534; also called delta RBD

[4] = molecular target: T4, RBD-Fc, kappa variant (B.1.617.1) (SARS-CoV-2; human, UniProt P0DTC2 332-534)
T4 construct: range 332-534; also called kappa RBD

Measured: binding result

B1: bispecific hcAb 1.29-1.10 (bispecific antibody)
heavy: QVQLVESGGGSVQAGGSLRLSCAASGYTINTDAVAWFRQAPGKGDERVAVIYTGSGNTNYADSVKGRFTISQDNAKNTVYLQMNSLKPEDTALYYCASGYYGASGYDFNNWGQGTQVTVSSGGGGSGGGGSGGGGSQVQLVESGGGSVQAGGSLRLSCAASGYTYSTCRKGWYRQAPGKERELVASITADGATYYLDSVKGRLTISQDNAKNTVYLQMNSLKPEDTAVYYCAASVKDFTCTFNSWGQGTQVTVSS
binds: all assays above

B2: bispecific hcAb 1.29-1.26 (bispecific antibody)
heavy: QVQLVESGGGSVQAGGSLRLSCAASGYTINTDAVAWFRQAPGKGDERVAVIYTGSGNTNYADSVKGRFTISQDNAKNTVYLQMNSLKPEDTALYYCASGYYGASGYDFNNWGQGTQVTVSSGGGGSGGGGSGGGGSQVQLVESGGGLVQAGGSLRLSCAATGYTWSSVCMGWFRQAPGKEREGVAGIPSGRNRPYYADSVKGRFTISQDNAKNAVFLLMNSLKPEDTAIYYCAPCSAPHDPEYNYWGQGTQVTVSS
binds: all assays above
